For test [1], the target named is SARS-CoV-2 Gamma突变株 S蛋白 (假病毒) (SARS-CoV-2 Gamma). The test is described as follows: cell-based or functional assay.
Test [2] concerns the target SARS-CoV-2 Delta突变株 S蛋白 (假病毒) (SARS-CoV-2 Delta). The test is described as follows: cell-based or functional assay.
Test [3] has as its target T1, SARS-CoV-2 S2蛋白 (Sino Biological, 货号 40590-V08B) (SARS-CoV-2, UniProt P0DTC2 686-1213).
T1 construct: domain: S2
The test is described as follows: ELISA, S2 coated at 2 μg/mL, antibody at 1 μg/mL.

Test [4] has as its target T2, SARS-CoV-2 S1蛋白 (Sino Biological, 货号 40591-V08H) (SARS-CoV-2, UniProt P0DTC2 16-685).
T2 construct: domain: S1
The experiment in a line: ELISA, S1 coated at 2 μg/mL, antibody at 1 μg/mL.

In test [5] the target is SARS-CoV S1蛋白 (Sino Biological, 货号 40150-V08B1) (SARS-CoV, UniProt P59594 14-667). The experiment in a line: ELISA, S1 coated at 2 μg/mL, antibody titrated. In general terms: An ELISA detects its analyte on a solid surface through an enzyme-linked reagent.
Test [6] has as its target T3, SARS-CoV-2-Hu-1 S蛋白 (Sino Biological, 货号 40589-V08B1) (SARS-CoV-2, UniProt P0DTC2 14-1213).
T3 construct: extracellular domain
The experiment in a line: ELISA screen, S protein coated at 2 μg/mL, antibody at 1 μg/mL.

B1: 广谱抗sarbecovirus和/或新冠突变株的抗体 SCM12-61 (antibody, V domains shown)
VH: QVQLVESGGGVVQPGRSLRLSCATSGFTFRSSAMHWVRQAPGKGLEWVAVIWFDGIKKYYTDSVKGRFTISRDNSKNTLYLQMNSLGAEDTAVYYCARDRAREFYPGPHCGDECYSSDAFDVWGQGTTVIVSS
VL: DIQMTQSPSSLSASVGDRVTITCRASQDINTYLNWYQQKSGRAPKFLIYAASSLQSGIPSRFSGSGSGTDFTLTIDSLQPEDFATYYCQQSHSIPYTFGQGTKLEIKR
Turning to B1, the “假病毒中和 IC50” value worked out at 0.00813 µg/mL in test [1] and 0.0248 µg/mL in test [2]. The binding result is on record as “no binding (tested: 1μg/mL)” in test [3], “binds” in test [4], “binds” in test [5] and “binds” in test [6].

The values are drawn from patent CN118459575A (CHENZHOU NO 1 PEOPLES HOSPITAL, dated 2024).
